# Measurements as given in the DeepSol protein solubility set.
# Test: soluble on expression in E. coli; label from the status in PepcDB or PDB records
row,Sequence,soluble on expression in E. coli
1,YALTEGEDYLVLDKPIPQEQPGKIEVLEFFGYFCVHCHHFDPLLLKLGKALPSDTYLRTEHVVWRPEMLGLARMAAAVKLSGLKYQANSAVFKAVYEQKIRLENRAVAGKWALSQKGFDGKKLMRAYDSPEAAAVALKMQKLTEQYGIDSTPTVIVGGKYRVIFNNGFDGGVHTIKELVAK,not soluble
2,YANRESLIKRYTLKVLEQIAWLPEAQSLDEAKVQEALEDASQTIDSYLGGRYVLPLKTVPAVLERHCCYIARYFLEKNRATDQARQDYEDTIRFLEKVASGAISLGLSDDDETVESENGAMMESAGSVWGRNT,not soluble
3,YATQSKNTNILLEYVSANPTGDLHIGHARNAAVGDSLANILIAAGYNVTREYYINDAGNQITNLARSIEARYFEALGDTSYEMPADGYNGKDIIEIGKDLAVKHPEIKDYSDEERLKTFRQLGVDYEMEKLKKDLSDFNVHFDNWFSETSLYENGAIKNTLSKMKELGYTYEADGATWLRTSDFKDDKDRVLIKKDGNYTYFTPDTAYHYNKINRGNDILIDLMGADHHGYINRLKASLETFGVDSDRLEIQIMQMVRLMQNGEEVKMSKRTGNAITLREIMDEVGIDAARYFLTMRSPDSHFDFDLELAKEQSQDNPIYYAQYAHARICSILKQAKE,not soluble
4,YCTLDDLILSFGQDEIYRLIATDQEAEKALDDAQAEIDMYLSDRYALPVKSVPKSLNRIACDIAHYYLYNSVDEDSTVYLRYKHRIKQLSDVAAGKLSLGLYDKSDDATTDNQVVFIKSSKKVFAR,not soluble
5,YIYRLGKEKEKNDRLIQSITINQMEARQNEEIINSTHSLRVFKHDIMNHMSILYKLVENGKNSDALKYIYQINNSIERTSYTISTGIIPIDCIMTAKLSKALDNNISIKHQIHFPANYNISDMDLCSLISNLLDNAIEANCKLDMTKRRLQIEIKPYNNMLLLFISNSSNGIYLYGGNGNLLTTKTSNKNEHGIGIKRINEIVKKYNGIIEFDPGTEIFSVSILFPLDN,not soluble
6,YNGQSETSQQPETPVFNTLPMMGKASPVSLGVPSEATANNGQQQQVQEQRRRINAMLQDYELQRRLHSEQLQFEQAQTQQAAVQVPGIQTLGTQSQ,soluble
7,YRDINEIDINMNDPLFTKQWYLINTGQADGTPGLDLNVAEAWELGYTGKGVTIGIMDDGIDYLHPDLASNYNAEASYDFSSNDPYPYPRYTDDWFNSHGTRCAGEVSAAANNNICGVGVAYNSKVAGIRMLDQPFMTDIIEASSISHMPQLIDIYSASWGPTDNGKTVDGPRELTLQAMADGVNKGRGGKGSIYVWASGDGGSYDDCNCDGYASSMWTISINSAINDGRTALYDESCSSTLASTFSNGRKRNPEAGVATTDLYGNCTLRHSGTSAAAPEAAGVFALALEANLGLTWRDMQHLTVLTSKRNQLHDEVHQWRRNGVGLEFNHLFGYGVLDAGAMVKMAKDWKTVPERFHCVGGSVQDPEKIPSTGKLVLTLTTDACEGKENFVRYLEHVQAVITVNATRRGDLNINMTSPMGTKSILLSRRPRDDDSKVGFDKWPFMTTHTWGEDARGTWTLELGFVGSAPQKGVLKEWTLMLHGTQSAPYIDQVVRDYQSKLAMSKKEELEEELDEAVERSLKSILNKN,soluble
8,YRNSIEGLIEKGIRDEEFIPYYQPIVDSRTQEVVGYEVLLRWQKGHQLVPPSLFISAAEDSGLVVKITNQLIQQVHRDLAQIPAPRWVSINVVADHLEQHHLTHLLEELHWPYSERLKFELTERVPIKAMTQAQEEVFYLLKKGYQFKIDDFGTGYGGFAYLQNLQISSIKIDKMFVDTINTHDVKISVLDSIIASAQGGNIEVIAEGVEHQYQVDYLAERNVFWIQGYFYAKP,not soluble
